The values that follow are results of earlier work, collected in PMC9453958.

The target in the data set is His64 (UniProt position 63, ILNNGHAFNVE). Nature of the data set: kinetics. The conditions noted are these: wild-type zinc enzyme during catalysis.

Take “Carbonic anhydrase II (HCA II) (Homo sapiens)”: the pKa (commonly the pH at which an ionisable group is half protonated) is 7.2 ± 0.1.
